Laboratory results from US8889408B2, “Factor taking part in transcription control” (Sony Corporation, priority 2002, dated 2014).

What was measured:
retinoic acid receptor = assay: RAR reporter CAT analysis in HepG2 cells; type: cell-based
Experimental: Since it is shown in the above example that HDART is able to interact with Skip, the functional role of HDART on the transcription route ascribed to a nuclear receptor was analyzed. First, the effect of HDART on the transcription regulation by retinoic acid receptor was analyzed. For this purpose, the CAT analysis was made using a RAR (retinoid acid receptor) reporter plasmid incorporating a thymidine kinase minimum promoter (pTREpal-tata) and CAT gene therein downstream of a retinoid response element.
More particularly, pcDNA3-HDART, capable of steadily expressing HDART, and, at the same time, RAR reporter plasmid, were transfected into HepG2 cells by use of Effectene kit (QIAGEN™). It is to be noted that the pcDNA3-HDART expression vector was introduced in different amounts of 0, 0.5 and 1.0 μg, and the amount of DNA in the respective transfections was equalized at 1 μg by adding the appropriate amount of a vacant vector of pcDNA. After the transfection, growth was made in the presence (10^−8 M) or absence of ATRA and the CAT activity was measured. The results of the measurement (FIG. 6) are indicated in terms of values corrected on the basis of the CAT activity obtained after introduction of 1.0 μg of a vacant vector in the absence of ATRA. In addition, the average of the results of three experiments and a standard deviation in terms of an error bar are also shown.
(§1) Next, the influence of the overexpression of N4TPR on the transcription from RAR or a glucocorticoid responsive promoter was checked. It will be noted that this test was made in the same manner as in the reporter analysis set out in Example 4, but using GFP-N4TPR expression vector (0, 0.3 and 0.5 μg).

MM-1-19-P cells = assay: ATRA-induced differentiation of MM-1-19-P rhabdomyosarcoma cells; type: cell-based, human
From the text: It is known that ATRA (all-trans retinoic acid) is an important inducer for tumor cell differentiation (20-22). The human rhabdomyosarcoma cell line MM-1-19-P is constituted mainly of small polygonal cells, which when provided with retinoic acid, ultimately differentiate into myotubular cytomegalic cells. In order to clarify the physiological role of HDART in the reaction ascribed to nuclear hormone receptors, the influence of the expression with HDART on the differentiation of MM-1-19-P caused by ATRA was analyzed.
MM-1-19-P cells were plated in a […] Petri dish, followed by co-transfection of the cells with 0.4 μg of pGFP vector and 2 μg of pcDNA3 (vacant vector) or pcDMA3-HDART (HDART expression vector). 24 hours after the transfection, the medium was changed with an ATRA-containing (2 μM) or ATRA-free fresh one. […] All experiments were repeated four times, and the number of cells assessed as positive for GFP was counted. It will be noted that in FIG. 12, the standard microphotographs of green fluorescence of GFP are shown in panels of FIGS. 12A, 12B, 12C and 12D, and the phase differential microphotographs are shown in panels of FIGS. 12E and 12F, respectively. In the figure, 12A indicates ATRA non-treated, vacant vector-introduced cells, 12B indicates ATRA treated, vacant vector-introduced cells, 12C indicates ATRA-non-treated, HDART expression vector-introduced cells, 12D indicates ATRA-treated, HDART expression vector-introduced cells, 12E indicates cells under the same conditions as in 12C above, and 12F indicates cells under the same conditions as in 12D above. In addition, the black arrow in the panel of FIG. 12F indicates undifferentiated GFP positive cells, and white arrow indicates differentiated cells.

HDAC = assay: CAT reporter analysis with HDART in the presence of HDAC inhibitors; type: cell-based; settings: pcDNA3-HDART 1 μg
Experimental: In this example, however, a given amount of pcDNA3-HDART expression vector (1 μg) (“HDART+” in FIGS. 10) and 100 nM of TSA or […] of sodium butyrate was added to along with a ligand (ATRA or dexamethasone).

[1] = system: glucocorticoid receptor (GR); assay: GR reporter CAT analysis in GR positive Hela cells; type: cell-based
Experimental: Furthermore, the action of HDART on the transcription regulation by glucocorticoid receptor (GR) was analyzed by use of GR reporter plasmid in GR positive Hela cells. The transcription activity of a glucocorticoid response promoter was carried out in the same manner as in the experiment for the retinoic acid receptor except for the use of Hela cells and 10^−8 M of dexamethasone. The results of the measurement are shown in the same manner as shown above.
as §1

Skip [2] = biological target: T1, Skip (Homo sapiens, UniProt Q13573); assay: Immunoprecipitation: N4TPR inhibition of endogenous HDART-Skip interaction in 293 cells; type: binding; parameters: expressed in transfected cells; host or cells: 293 cells; settings: GFP-N4TPR expressed versus GFP alone
T1 sequence (Q13573 1-536): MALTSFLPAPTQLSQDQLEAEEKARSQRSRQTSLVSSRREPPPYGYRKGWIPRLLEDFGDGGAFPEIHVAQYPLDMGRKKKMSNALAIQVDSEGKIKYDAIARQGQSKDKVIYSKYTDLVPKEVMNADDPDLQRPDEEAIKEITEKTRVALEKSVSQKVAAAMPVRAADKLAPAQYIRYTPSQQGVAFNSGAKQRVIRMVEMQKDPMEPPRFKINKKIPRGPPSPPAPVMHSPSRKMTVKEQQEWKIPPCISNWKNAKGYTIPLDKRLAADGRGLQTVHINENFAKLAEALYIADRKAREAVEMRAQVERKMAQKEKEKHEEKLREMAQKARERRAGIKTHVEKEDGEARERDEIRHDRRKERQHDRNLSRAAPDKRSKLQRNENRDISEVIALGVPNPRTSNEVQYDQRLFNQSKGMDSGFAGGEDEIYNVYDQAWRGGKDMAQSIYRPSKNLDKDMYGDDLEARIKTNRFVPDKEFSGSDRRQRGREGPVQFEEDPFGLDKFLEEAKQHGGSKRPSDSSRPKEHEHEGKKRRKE
From the text: RAR and TR inhibit the genetic activity in the absence of a ligand in vivo (Baniahmad, A., Kohne, A. C., and Renkawitz, R. (1992) Embo J 11(3), 1015-23) and in vitro (Fondell, J. D., Roy, A. L., and Roeder, R. G. (1993) Genes Dev 7(7B), 1400-10). From this, this is called active repression. Skip interacts with NHR independently of ligand (MacDonald, P. N., Baudino, T. A., Toumaru, H., Dowd, D. R., and Zhang, C. (2001) Steroids 66 (3-5), 171-6). […] In order to clarify these possibilities, a dominant negative line of HDART is overexpressed to check the influence on the transcription ascribed to RAR. As shown in Example 2, the four TRPs (N4TPR) at the N terminus of HDART are in the Skip binding region, so that it is hypothesized that the expression of this region inhibits the interaction between the endogenous HDART and Skip, it is inhibiting the natural function of HDART and functioning as a dominant negative. In this sense, the N4TPR was used as a candidate for dominant negative in this example.
Flag-Skip and N4TPR tagged with GFP or GFP were transfected into 293 cells. […] The expression of Flag-Skip was detected using an anti-Flag antibody, the expression of GFP and GFP-N4TPR detected using an anti-GFP antibody, and the expression of the internal HDART detected using an anti-HDART antibody, respectively (FIG. 11A).

Skip [3] = biological target: T1, Skip; assay: Yeast two-hybrid analysis (β-galactosidase) of HDART-Skip interaction; type: binding; parameters: expressed in transfected cells; host or cells: Saccharomyces cerevisiae Y190; settings: Gal4DBD-HDART and deletion mutants with Gal4AD-Skip; β-galactosidase activity
From the text: In order to isolate a protein that binds to this HDART, a yeast two-hybrid system was used. More particularly, a yeast MATCHMAKER two-hybrid analysis kit (Clontech) was used for the isolation. The ORF full length of HDART was inserted so that it and the Gal4 DNA binding domain reading frame were aligned in the same frame with each other within pAS-1 vector (Clontech). This bait plasmid was transformed into Saccharomyces cerevisiae Y190 along with pACT2 prey plasmid whose HeLa cDNA (Clontech) had been sub-cloned. The screening for clones into which both plasmids were introduced was carried out according to the kit protocol. […]
For mapping of regions on the Skip taking part in the interaction with HDART, a series of deletion mutations where various regions on Skip (N-terminus region (codon 1-220), nuclear hormone binding region (NHR binding, codon 221-388), and tran-activation region (TA, codon 438-536) were deleted, and the interaction between HDART and mutated Skip was analyzed according to the yeast two-hybrid analysis using Gal4DBD-HDART as set forth in Example 2. The results of the analysis are shown in FIG. 5A. The sign “+” indicated at the right of FIG. 5A indicates the observation of the interaction by the filter lift analysis of β-galactosidase activity, and the number of “+” indicates the relative intensity of the interaction. […]

[4] = absence of a ligand, GFP-N4TPR expression vector 0.5 μg (highest expression level)
[5] = absence of ligand, GFP-N4TPR expression vector 0.3 μg

With CC1=C(/C=C/C(C)=C/C=C/C(C)=C/C(=O)O)C(C)(C)CCC1 [ATRA, all-trans retinoic acid, reference compound] the CAT activity (retinoic acid receptor; HepG2 cells receiving vacant vector (pcDNA), presence of ATRA 10^−8 M versus absence) was “increased five-fold”, the “number of GFP positive cells (cytotoxic effect)” value (MM-1-19-P cells; cells treated with the vacant vector and ATRA 2 μM) was “less than 30%” and the “morphological differentiation into muscle tissue (myotubular cytomegalic cells)” value (MM-1-19-P cells; vacant vector-introduced cells, ATRA 2 μM, 48 hours) was “differentiated into muscle tissue”.

CC(/C=C/C(=O)NO)=C\[C@@H](C)C(=O)c1ccc(N(C)C)cc1 [triconstatin A, tricostatin A] was tested, and the “expression repression by HDART” value (HDAC; 100 nM TSA added with ligand (ATRA or dexamethasone)) was “fully neutralized”.

CCCC(=O)[O-].[Na+] [sodium butyrate] was tested, and the “expression repression by HDART” value (HDAC; 1 mA of sodium butyrate added with ligand (ATRA or dexamethasone)) was “The same results were also observed”.

B1: N4TPR: dominant negative peptide of HDART: four TPRs at the N terminus, amino acids 1 to 179 of SEQ ID NO: 2 (protein, listed as Homo sapiens)
chain: MVVMARLSRPERPDLVFEEEDLPYEEEIMRNQFSVKCWLRYIEFKQGAPKPRLNQLYERALKLLPCSYKLWYRYLKARRAQVKHRCVTDPAYEDVNNCHERAFVFMHKMPRLWLDYCQFLMDQGRVTHTRRTFDRALRALPITQHSRIWPLYLRFLRSHPLPETAVRGYRRFLKLSPES
With B1 the “transcription activation capability for the retinoic acid receptor compared with ATRA” value (retinoic acid receptor; N4TPR versus ATRA) was “higher transcription activation capability than ATRA”, the “transcription activity from the RAR responsive promoter” value (retinoic acid receptor; [4]) was “about 20 times” and the “transcription activity from the RAR responsive promoter” value (retinoic acid receptor; [5]) was “increased up to the amount (gray column) of transcription activity induced by the presence of ligand”. For the same molecule, the “transcription activity from the glucocorticoid responsive promoter” value [1, 4] was “about 20 times”, the “transcription activity from the glucocorticoid responsive promoter” value [1, 5] was “increased up to the amount (gray column) of transcription activity induced by the presence of ligand” and the “amount of HDART co-precipitated with Skip” value (Skip [2]) was “more reduced amount”. For the same molecule, the “interaction with Skip” value (Skip [3]) was “ensures the interaction with Skip to a full extent”.
